From US20210238298A1 (ALLIGATOR BIOSCIENCE, published 2021)
Where a chain is given by its changes, count along the chain named.

T1: extracellular part of human OX40 fused to the transmembrane and intracellular part of hCD40, on CHO cells (human, UniProt P25942 194-277, limits assumed)
T1 construct: domain: transmembrane and intracellular part; also called hOX40 overexpressed on CHO cells; huOX40 (CHO)
T1 sequence: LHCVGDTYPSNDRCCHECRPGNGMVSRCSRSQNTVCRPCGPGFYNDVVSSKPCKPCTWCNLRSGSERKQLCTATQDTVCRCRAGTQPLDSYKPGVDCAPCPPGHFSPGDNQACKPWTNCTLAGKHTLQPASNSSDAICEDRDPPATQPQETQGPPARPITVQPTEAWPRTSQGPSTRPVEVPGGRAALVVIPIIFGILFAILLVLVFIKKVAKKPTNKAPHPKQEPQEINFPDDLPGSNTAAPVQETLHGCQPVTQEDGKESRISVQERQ

T2: OX40 chimera 1549: human OX40 with mouse domains 1A and 4B and non-annotated extracellular region (aa 30-65 … (human; mouse, UniProt P47741 26-61; P47741 125-211)
T2 construct: domain: 1A;domain: 4B and non-annotated extracellular region; Limits derived as for 1544
T2 sequence: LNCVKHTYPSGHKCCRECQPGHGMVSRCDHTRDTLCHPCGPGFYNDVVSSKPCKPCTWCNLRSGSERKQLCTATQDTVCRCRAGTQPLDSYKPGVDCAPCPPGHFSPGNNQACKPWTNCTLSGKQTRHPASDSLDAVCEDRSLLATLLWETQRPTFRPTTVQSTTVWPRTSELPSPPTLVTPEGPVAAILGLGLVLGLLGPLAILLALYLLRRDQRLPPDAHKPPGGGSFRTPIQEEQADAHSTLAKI

T3: Human OX40 (R&D systems, #3358_OX) (human, UniProt P43489 29-216)
T3 construct: Bought; Several catalogue numbers are given for it; also called human OX40 (R&D Systems, 3388-OX); OX40-Fc (R&D systems, #3358_OX); not shown: Fc part
T3 sequence: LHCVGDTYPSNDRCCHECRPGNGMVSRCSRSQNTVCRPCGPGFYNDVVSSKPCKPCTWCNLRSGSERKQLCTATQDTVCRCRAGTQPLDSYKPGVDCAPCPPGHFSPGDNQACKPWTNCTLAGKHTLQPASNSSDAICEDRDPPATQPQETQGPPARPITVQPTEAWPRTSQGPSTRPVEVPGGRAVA

T4: murine OX40 (murine, UniProt P47741 20-211, limits assumed)
T4 sequence (looked up): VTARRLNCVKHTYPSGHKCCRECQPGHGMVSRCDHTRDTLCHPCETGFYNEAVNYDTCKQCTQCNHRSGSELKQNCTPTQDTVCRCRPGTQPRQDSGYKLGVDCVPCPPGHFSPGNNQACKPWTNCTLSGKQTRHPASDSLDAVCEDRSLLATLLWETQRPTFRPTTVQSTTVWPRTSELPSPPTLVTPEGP

B1: anti-OX40 antibody 1164/1135 (antibody, V domains shown)
VH: EVQLLESGGGLVQPGGSLRLSCAASGFTFYGSSMYWVRQAPGKGLEWVSGIYSSGGYTSYADSVKGRFTISRDNSKNTLYLQMNSLRAEDTAVYYCARGVPHGYFDYWGQGTLVTVSS
VL: not shown
notes: Tested as IgG
B2: anti-OX40 antibody 1524/1525 (antibody, V domains shown)
VH: EVQLLESGGGLVQPGGSLRLSCAASGFTFGSYYMGWVRQAPGKGLEWVSSIGSYYGYTYYADSVKGRFTISRDNSKNTLYLQMNSLRAEDTAVYYCARHDYGALDYWGQGTLVTVSS
VL: DIQMTQSPSSLSASVGDRVTITCRASQSISSYLNWYQQKPGKAPKLLIYAASSLQSGVPSRFSGSGSGTDFTLTISSLQPEDFATYYCQQYGPSGLFTFGQGTKLEIK
notes: Tested as IgG
B3: anti-OX40 antibody 1168/1135 (antibody, V domains shown)
VH: B1 VH with Y30S, Y35S, G50S, Y52S, S53Y, S54Y, S59Y, G99Y, V100F, G103Y
VL: not shown
notes: Tested as IgG
B4: anti-OX40 antibody 1542/1135 (antibody, V domains shown)
VH: B1 VH with Y30G, G31S, Y52G, S53Y, S54Y, G55S, G56Y, Y57S, V100Y, G103H
VL: not shown
notes: Tested as IgG
B5: anti-OX40 antibody 1482/1483 (antibody, V domains shown)
VH: EVQLLESGGGLVQPGGSLRLSCAASGFTFSSYAMSWVRQAPGKGLEWVSYISYYSGYTYYADSVKGRFTISRDNSKNTLYLQMNSLRAEDTAVYYCARGYGYLDYWGQGTLVTVSS
VL: DIQMTQSPSSLSASVGDRVTITCRASQSISSYLNWYQQKPGKAPKLLIYAASSLQSGVPSRFSGSGSGTDFTLTISSLQPEDFATYYCQQYGSLLTFGQGTKLEIK
notes: Tested as IgG
B6: anti-OX40 antibody 1526/1527 (antibody, V domains shown)
VH: EVQLLESGGGLVQPGGSLRLSCAASGFTFSGYSMYWVRQAPGKGLEWVSGIGYSGYGTYYADSVKGRFTISRDNSKNTLYLQMNSLRAEDTAVYYCARYYFHDYAAYSLDYWGQGTLVTVSS
VL: B2 VL with P93S, S94D, G95S, F97L
notes: Tested as IgG

Biological target: T1, extracellular part of human OX40 fused …
Assay: flow cytometry, CHO cells with human OX40 (extracellular part on hCD40 transmembrane and intracellular part), anti-huIgG-PE
Experimental: The extracellular part of human OX40 was fused to the transmembrane and intracellular part of hCD40 and cloned into pcDNA3.0. The vector was subsequently stably transfected into CHO cells. […] For the assay, the transfected cells were incubated with the test antibodies and controls for 30 min at 4° C. and then detected with a-huIgG-PE (Jackson Immunoresearch) 30 min 4° C. Cells were analyzed by flow cytometry with FACS Verse (BD Biosciences).

EC50 (read off the curve)	Binder
~0.01 mg/L	B1
~0.05 mg/L	B2

Biological target: T1, extracellular part of human OX40 fused …
Assay: flow cytometry, cells with human OX40; 95% confidence interval
Experimental: (§1) For the assay, the transfected cells were incubated with the test antibodies and controls for 30 min at 4° C. and then detected with a-huIgG-PE (Jackson Immunoresearch) 30 min 4° C. Cells were analyzed by flow cytometry with FACS Verse (BD Biosciences).

EC50	Binder
0.0636 to 0.131 mg/L	B3
0.322 to 0.552 mg/L	B4
0.082 to 0.182 mg/L	B5
0.172 to 0.429 mg/L	B6

Biological target: T2, OX40 chimera 1549: human OX40 with …
Assay: flow cytometry, 293-F transfectants

relative MFI vs isotype control	Binder
13	B4
8.7	B5
11.2	B2
8.5	B6

Biological target: T3, Human OX40 (R&D systems, #3358_OX)
Assay: SPR (Biacore), immobilised human OX40
Experimental: Human OX40 (R&D systems, #3358_OX) was immobilized to the Biacore™ sensor chip, CM5, using conventional amine coupling. The tested antibodies and controls (serially diluted ⅓ or ½ 100-2 nM) were analyzed for binding in HBS-P (GE, #BR-1003-68) at a flow rate of […]. The association was followed for 3 minutes and the dissociation for 20 minutes. Regeneration was performed twice using 50 mM NaOH for 60 seconds. The kinetic parameters and the affinity constants were calculated using 1:1 Langmuir model with drifting baseline. […] The kinetic parameters and the affinity constants were calculated using BIAevaluation 4.1 software.

Kd	koff	kon	Binder
0.327 nM	0.000169 s⁻¹	518000 M⁻¹ s⁻¹	B3
0.463 nM	0.0001 s⁻¹	216000 M⁻¹ s⁻¹	B4
0.308 nM	7.73e-05 s⁻¹	251000 M⁻¹ s⁻¹	B1
0.753 nM	0.000584 s⁻¹	776000 M⁻¹ s⁻¹	B5
0.811 nM	0.00139 s⁻¹	1.71e+06 M⁻¹ s⁻¹	B2
0.43 nM	0.000187 s⁻¹	435000 M⁻¹ s⁻¹	B6

Biological target: extracellular part of OX40 from Macaca mulatta fused to the transmembrane and intracellular part of hCD40, on … (Macaca mulatta; human, UniProt A0A5F7ZKD5 21-541; P25942 194-277)
Assay: flow cytometry, macOX40-HEK cells; 95% confidence interval
Experimental: as §1

EC50	Binder
0.0905 to 0.194 mg/L	B3
0.722 to 1.41 mg/L	B4
0.157 to 0.312 mg/L	B5
0.292 to 0.589 mg/L	B6

Biological target: T5, CD40 (Ancell) (UniProt P25942 21-193)
T5 construct: also called CD40-Fc (Ancell #504-820); not shown: Fc part, not described
Assay: ELISA

T5 sequence (P25942 21-193 limits assumed): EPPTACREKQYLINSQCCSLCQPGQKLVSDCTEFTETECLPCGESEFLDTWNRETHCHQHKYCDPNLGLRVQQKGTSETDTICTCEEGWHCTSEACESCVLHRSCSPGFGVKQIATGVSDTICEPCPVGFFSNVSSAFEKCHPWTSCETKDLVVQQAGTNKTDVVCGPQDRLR

binding result	Binder
no binding	B3
no binding	B4
no binding	B1
no binding	B5
no binding	B2
no binding	B6

Biological target: T6, recombinant human CD137-Fc (R&D #838-4B) (human, UniProt Q07011 24-186)
T6 construct: Bought; also called Human CD137 (R&D systems); CD137 (R&D Systems); not shown: Fc part, not described
Assay: ELISA

T6 sequence (Q07011 24-186 limits assumed): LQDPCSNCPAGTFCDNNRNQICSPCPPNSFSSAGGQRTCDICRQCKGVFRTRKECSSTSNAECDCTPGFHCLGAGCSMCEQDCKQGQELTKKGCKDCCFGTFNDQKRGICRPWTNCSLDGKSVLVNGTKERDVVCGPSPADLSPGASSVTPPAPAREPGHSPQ

binding result	Binder
no binding	B3
no binding	B4
no binding	B1
no binding	B5
no binding	B2
no binding	B6

Biological target: T4, murine OX40
Assay: ELISA

binding result	Binder
no binding	B3
no binding	B4
no binding	B1
no binding	B5
no binding	B2
no binding	B6
